Measured values: US20110028538

Tested on: TR4 (Nr2c2), endogenous (Mus musculus)
Conditions: ChIP with anti-TR4 in RAW264.7 cells versus IgG

## CD36 promoter region (ChIP amplicon)
  binding signal: > 4 fold
